± gives the standard deviation of the averaged measurements.
System: ATP
Assay: switch fluorescence ratio, 500 uM ATP over buffer (Cy3 cluster intensity, sum of 5 cycles each) (fold (ratio)); higher = stronger signal-on switching upon ATP binding; sequences stand for … in TCGTCGGCAGCGTCAGATGTGTATAAGAGACAGTTTTTTTTTTTTTTTTTTTTTTTTT…TC
Conditions: aptamer strand: ATP DNA aptamer (quencher-CACCTGGGGGAGTATTGCGGAGGAAGG + anchor), 100 nM annealed; ATP concentration: 500 uM
In short: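 Between each of five buffer/ATP cycles, the flow-cell was stripped with NaOH and re-annealed. Each cycle imaged Cy3-labelled switching-strand clusters, annealed to 100 nM quencher-labelled ATP aptamer on a modified Illumina MiSeq flow-cell, first in selection buffer and then after 15 min with 500 uM ATP at 22 °C. The fluorescence ratio is summed target-cycle over summed buffer-cycle Cy3 intensity per cluster, averaged per switch-domain sequence, with clusters outside 100-1000 RFU excluded.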
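Further: ATP exposure 15 min at 22 °C before imaging.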

Sequence: GCGTTTGTGG
- switch fluorescence ratio: 1 ± 0.011

Sequence: GGGGGGCAGG
- switch fluorescence ratio: 1.03 ± 0.039

Sequence: TCTCGTCAGC
- switch fluorescence ratio: 1.087 ± 0.0041

Sequence: TCTGGGTGCC
- switch fluorescence ratio: 1.02 ± 0.055

Sequence: GGTTGACTTA
- switch fluorescence ratio: 1.03 ± 0.011

Sequence: TCCAGGCGTA
- switch fluorescence ratio: 1.021 ± 0.0089

Sequence: GGGGGATCGC
- switch fluorescence ratio: 1.01 ± 0.025

Sequence: TTTAAGGGG
- switch fluorescence ratio: 1.02 ± 0.051

Sequence: TGGAGGGCTC
- switch fluorescence ratio: 1.01 ± 0.025

Sequence: GGGACCATAT
- switch fluorescence ratio: 1.03 ± 0.015

Sequence: GACAGAGCCA
- switch fluorescence ratio: 1.1036 ± 0.0011

Sequence: AATATTAGGT
- switch fluorescence ratio: 0.995 ± 0.023

Sequence: TTGGGGAGTA
- switch fluorescence ratio: 0.9929 ± 0.0089

Sequence: GGGGTTGCGT
- switch fluorescence ratio: 0.996 ± 0.034

Sequence: AGCGAATTTT
- switch fluorescence ratio: 0.999 ± 0.017

Sequence: TGGGGGCTGT
- switch fluorescence ratio: 0.998 ± 0.016

Sequence: CGTTCACCTG
- switch fluorescence ratio: 0.996 ± 0.038

Sequence: GATTAAATAT
- switch fluorescence ratio: 1.02 ± 0.012

Sequence: CCCGGAAGGT
- switch fluorescence ratio: 1.041 ± 0.0048

Sequence: TGGGACATGG
- switch fluorescence ratio: 0.995 ± 0.031

Sequence: AAATTGCGGG
- switch fluorescence ratio: 0.994 ± 0.048

Sequence: AGGCCGTGGC
- switch fluorescence ratio: 0.968 ± 0.035

Sequence: GCATTGAGGG
- switch fluorescence ratio: 1.04 ± 0.047

Sequence: TTTTAGGGAG
- switch fluorescence ratio: 0.992 ± 0.03

Sequence: ATAAGAGGAG
- switch fluorescence ratio: 0.995 ± 0.022

Sequence: CAGGGGAATG
- switch fluorescence ratio: 0.994 ± 0.021

Sequence: AAGAAGGCGG
- switch fluorescence ratio: 0.9845 ± 0.0069

Sequence: GACCAATATT
- switch fluorescence ratio: 1.134 ± 0.0034

Sequence: TAGTTGGAAG
- switch fluorescence ratio: 1.021 ± 0.0048

Sequence: AAACAGCTTA
- switch fluorescence ratio: 1.05 ± 0.056

Sequence: TTGGGTGCCT
- switch fluorescence ratio: 0.999 ± 0.028

Sequence: TCCGGTATCG
- switch fluorescence ratio: 1.04 ± 0.016

Sequence: CGGGTGGGTC
- switch fluorescence ratio: 1.29 ± 0.51

Sequence: TTGGAGGCGT
- switch fluorescence ratio: 0.9814 ± 0.0057

Sequence: GTGATGACAT
- switch fluorescence ratio: 1 ± 0.013

Sequence: AATTTGTATT
- switch fluorescence ratio: 0.997 ± 0.011

Sequence: TTTCTTGTCT
- switch fluorescence ratio: 1.01 ± 0.035

Sequence: GGGGGGCCTT
- switch fluorescence ratio: 1 ± 0.04

Sequence: TTTTTTTGAA
- switch fluorescence ratio: 0.979 ± 0.02

Sequence: GAGGGAGCAG
- switch fluorescence ratio: 1.01 ± 0.017

Sequence: ATCATTGGGC
- switch fluorescence ratio: 0.988 ± 0.025

Sequence: AACACAGCTC
- switch fluorescence ratio: 1.02 ± 0.024

Sequence: TTTTCGTATT
- switch fluorescence ratio: 0.988 ± 0.012

Sequence: GAACGCGATT
- switch fluorescence ratio: 3.92 ± 1.3

Sequence: GGTAAGTTTG
- switch fluorescence ratio: 1.03 ± 0.028

Sequence: TTTTTTGGTC
- switch fluorescence ratio: 1.03 ± 0.037

Sequence: GACGGGGCCC
- switch fluorescence ratio: 1 ± 0.013

Sequence: ATGTTCAGTT
- switch fluorescence ratio: 0.974 ± 0.012

Sequence: TTGAATGTCA
- switch fluorescence ratio: 0.968 ± 0.019

Sequence: ATATTAGTTT
- switch fluorescence ratio: 1 ± 0.011

Sequence: AAGGGATGCT
- switch fluorescence ratio: 1 ± 0.011

Sequence: TTTTTGTATG
- switch fluorescence ratio: 1.02 ± 0.034

Sequence: GGGAGTGTGT
- switch fluorescence ratio: 0.986 ± 0.039

Sequence: TTGTTGGTAG
- switch fluorescence ratio: 1.03 ± 0.031

Sequence: TCCCCTTGCT
- switch fluorescence ratio: 1.03 ± 0.094

Sequence: CTTTGTCTTA
- switch fluorescence ratio: 0.999 ± 0.05

Sequence: TGACAACAGC
- switch fluorescence ratio: 1.049 ± 0.0091

Sequence: TGTTATGTTT
- switch fluorescence ratio: 0.99 ± 0.032

Sequence: AGCGGGTAGA
- switch fluorescence ratio: 0.986 ± 0.02

Sequence: GTGTGACAAC
- switch fluorescence ratio: 0.975 ± 0.013

Sequence: GAGAATCCGG
- switch fluorescence ratio: 1 ± 0.087

Sequence: AACTTTGTTT
- switch fluorescence ratio: 0.9832 ± 0.0047

Sequence: AATATATGT
- switch fluorescence ratio: 1.02 ± 0.023

Sequence: TGAAAGTGCT
- switch fluorescence ratio: 0.973 ± 0.02

Sequence: GACCGGAGTC
- switch fluorescence ratio: 1.03 ± 0.049

Sequence: TGAAGTGAAT
- switch fluorescence ratio: 1.01 ± 0.011

Sequence: TCATCTTGGC
- switch fluorescence ratio: 1.02 ± 0.096

Sequence: ATTTTAGGGA
- switch fluorescence ratio: 0.98918 ± 0.00041

Sequence: CAGTTTGACC
- switch fluorescence ratio: 0.987 ± 0.048

Sequence: AGAATGAGTG
- switch fluorescence ratio: 1.026 ± 0.0048

Sequence: CATGGGTGCG
- switch fluorescence ratio: 1.02 ± 0.014

Sequence: AGGTTTGGGA
- switch fluorescence ratio: 0.987 ± 0.032

Sequence: CTCGTTTATC
- switch fluorescence ratio: 1.03 ± 0.032

Sequence: GAAGGATTGT
- switch fluorescence ratio: 1.02 ± 0.059

Sequence: TGATTGTATG
- switch fluorescence ratio: 1.01 ± 0.011

Sequence: CTCTTTGCGA
- switch fluorescence ratio: 1.404 ± 0.0035

Sequence: TATGCTAGGG
- switch fluorescence ratio: 0.977 ± 0.036

Sequence: CATAGTGATC
- switch fluorescence ratio: 1.051 ± 0.0011

Sequence: GGAAGATTTT
- switch fluorescence ratio: 0.989 ± 0.058

Sequence: GGGGGGACAA
- switch fluorescence ratio: 1 ± 0.013

Sequence: AAAGTTTTTT
- switch fluorescence ratio: 1.19 ± 0.39

Sequence: TCCTAGTTGT
- switch fluorescence ratio: 0.9798 ± 0.0013

Sequence: GGTTACGGTA
- switch fluorescence ratio: 1.04 ± 0.031

Sequence: CACCGGCTTT
- switch fluorescence ratio: 1.1 ± 0.14

Sequence: AAGAGGTGTT
- switch fluorescence ratio: 1.04 ± 0.071

Sequence: TTATGAATTT
- switch fluorescence ratio: 0.98 ± 0.026

Sequence: ATTCGGGTTA
- switch fluorescence ratio: 0.99 ± 0.013

Sequence: TTTGGTTATG
- switch fluorescence ratio: 0.982 ± 0.017

Sequence: TTGCTTGAGC
- switch fluorescence ratio: 1.006 ± 0.0092

Sequence: GCGGGATACA
- switch fluorescence ratio: 1.07 ± 0.034

Sequence: TCGGGGGGTG
- switch fluorescence ratio: 1.01 ± 0.041

Sequence: GTGGTTGTTT
- switch fluorescence ratio: 1.01 ± 0.049

Sequence: AGGCCTAACG
- switch fluorescence ratio: 0.995 ± 0.01

Sequence: GTAAAGTTTT
- switch fluorescence ratio: 0.991 ± 0.018

Sequence: ACACTTGCGC
- switch fluorescence ratio: 1.02 ± 0.038

Sequence: GGGTCTACCG
- switch fluorescence ratio: 0.991 ± 0.015

Sequence: AACGGCGTGA
- switch fluorescence ratio: 1.08 ± 0.14

Sequence: AGTGAATGGA
- switch fluorescence ratio: 0.991 ± 0.024

Sequence: TGCGGACAA
- switch fluorescence ratio: 0.9948 ± 0.0043

Sequence: CGATTGTGCG
- switch fluorescence ratio: 1.04 ± 0.029

— the supplement of paper PMC10126150
